Experimental data: PMC12802151

How the values were obtained:
[1] = target: J paramyxovirus receptor-binding protein, β-propeller head domain with extended C-terminus (JPV-RBPβ+) (J paramyxovirus (JPV)); experiment: crystal structure; JPV-RBPβ+ at 3.5 mg/mL, sitting-drop vapor diffusion at room temperature, 0.1 M tris/bicine pH 8.5, 0.2 M ammonium sulfate, Morpheus precipitant mix 4; 2.2 Å; a dimer in the asymmetric unit
[2] = target: Beilong paramyxovirus (HMC isolate) receptor-binding protein, β-propeller head domain with C-terminal extension (BeiV(HMC)-RBPβ+) (Beilong paramyxovirus (BeiV), isolate from human mesangial cells (HMC)); experiment: crystal structure; BeiV(HMC)-RBPβ+ at 3.2 mg/mL, sitting-drop vapor diffusion at room temperature, 0.2 M potassium thiocyanate, 0.1 M sodium cacodylate pH 6.5, 8% poly-γ-glutamic acid polymer; 3.5 Å; a dimer in the asymmetric unit

Substance	stoichiometry N [1]	stoichiometry N [2]
J paramyxovirus receptor-binding protein, β-propeller head domain with extended C-terminus (JPV-RBPβ+) (domain or fragment)	2	–
Beilong paramyxovirus (HMC isolate) receptor-binding protein, β-propeller head domain with C-terminal extension (BeiV(HMC)-RBPβ+) (domain or fragment)	–	2
